Data: patent US20210169929A1

Molecular target: CD19 CAR (4G7-CAR) encoded by Construct 1, expressed on transfected HEK293 cells
Experiment: flow cytometry, HEK293 cells transfected with Construct 1, biotinylated CD19 then streptavidin-PE; unstained 17.4, streptavidin-PE only 18.5

Chain of CD19 CAR (4G7-CAR) encoded by Construct 1, expressed on transfected HEK293 cells (chain, as listed by the source limits assumed): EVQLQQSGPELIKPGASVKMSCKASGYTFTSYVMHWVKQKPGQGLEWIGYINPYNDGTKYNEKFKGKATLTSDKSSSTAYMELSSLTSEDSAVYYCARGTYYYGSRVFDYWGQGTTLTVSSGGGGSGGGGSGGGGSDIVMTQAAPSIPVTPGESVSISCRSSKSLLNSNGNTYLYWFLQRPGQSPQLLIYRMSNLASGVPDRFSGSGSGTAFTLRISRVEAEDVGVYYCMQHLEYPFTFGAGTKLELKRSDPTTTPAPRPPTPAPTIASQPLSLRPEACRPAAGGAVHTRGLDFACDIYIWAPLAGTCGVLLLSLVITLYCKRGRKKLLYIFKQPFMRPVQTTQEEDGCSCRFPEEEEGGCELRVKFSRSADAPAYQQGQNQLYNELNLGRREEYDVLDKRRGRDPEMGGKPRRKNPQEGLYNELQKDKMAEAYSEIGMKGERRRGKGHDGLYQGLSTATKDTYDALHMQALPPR

PE (CD19) flow cytometry value: 33.3
Substance: biotinylated CD19 (Acro CD9-H8259, Acro Biosystems) (from UniProt P15391 20-291)
